In US20140288007A1:
Values joined by “and” are separate entries in the source; they are usually repeats but may differ in a detail not shown here. Equal entries are not always repeated.

What was measured:
[1] = biological target: KgpcatΔABM1 (enriched fraction from P. gingivalis mutant ECR368) (Porphyromonas gingivalis) (UniProt Q51817); assay: enzyme inhibition kinetics (non-competitive, Ki′), chromogenic substrate GPKNa, secondary plot of Vmax observed against inhibitor concentration
[2] = biological target: KgpcatΔABM1 (enriched fraction from P. gingivalis mutant ECR368) (Porphyromonas gingivalis) (UniProt Q51817); assay: cell-based or functional assay

| Substance | Ki [1] [nM] | inhibition of KgpcatΔABM1 activity, chromogenic substrate GPKNa [2] | inhibition of KgpcatΔABM1 enriched fraction activity, fluorescent BSA substrate (DQ BSA), 2 h [2] [%] | % Proteolytic Activity (GPKNa; inhibitor 50 mg/L) [2] [%] |
| --- | --- | --- | --- | --- |
| recombinant Kgp propeptide (from UniProt Q51817 25-1732) | 2010 | 75% and 60% | 66 | – |
| recombinant RgpB propeptide (from UniProt P95493 25-229) | – | – | – | 118 |
